Laboratory results reported in patent US20190322730A1.

How the values were obtained:
Test in all cases: binding screen of Example 5; the reference itself
C3a (human) = C3a (human) (UniProt P01024)
C3b (human) = C3b (human) (UniProt P01024)
C3c = C3c (UniProt P01024)
C3d = C3d (UniProt P01024)
Factor Bb = Factor Bb (UniProt P00751)
[1] = target: human complement component C3 (human) (UniProt P01024)
iC3b = iC3b (UniProt P01024)

C3a (human), sequence (P01024 672-748 limits assumed): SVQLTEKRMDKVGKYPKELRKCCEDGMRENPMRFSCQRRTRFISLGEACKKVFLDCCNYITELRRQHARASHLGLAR
Factor Bb, sequence (P00751 260-764 limits assumed): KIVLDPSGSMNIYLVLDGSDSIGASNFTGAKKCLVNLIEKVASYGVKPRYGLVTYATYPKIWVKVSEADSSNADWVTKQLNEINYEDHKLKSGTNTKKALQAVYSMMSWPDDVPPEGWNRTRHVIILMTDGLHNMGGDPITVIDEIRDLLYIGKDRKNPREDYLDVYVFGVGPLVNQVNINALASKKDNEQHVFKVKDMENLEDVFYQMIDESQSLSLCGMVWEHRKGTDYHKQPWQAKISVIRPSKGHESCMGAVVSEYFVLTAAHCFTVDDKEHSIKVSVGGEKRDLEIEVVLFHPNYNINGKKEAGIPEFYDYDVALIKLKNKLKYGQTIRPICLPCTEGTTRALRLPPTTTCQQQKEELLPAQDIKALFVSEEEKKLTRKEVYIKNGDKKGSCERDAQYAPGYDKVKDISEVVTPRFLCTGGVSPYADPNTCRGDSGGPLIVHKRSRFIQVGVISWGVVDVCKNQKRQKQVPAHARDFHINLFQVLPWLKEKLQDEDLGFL
C3d, sequence (P01024 1002-1303 limits assumed): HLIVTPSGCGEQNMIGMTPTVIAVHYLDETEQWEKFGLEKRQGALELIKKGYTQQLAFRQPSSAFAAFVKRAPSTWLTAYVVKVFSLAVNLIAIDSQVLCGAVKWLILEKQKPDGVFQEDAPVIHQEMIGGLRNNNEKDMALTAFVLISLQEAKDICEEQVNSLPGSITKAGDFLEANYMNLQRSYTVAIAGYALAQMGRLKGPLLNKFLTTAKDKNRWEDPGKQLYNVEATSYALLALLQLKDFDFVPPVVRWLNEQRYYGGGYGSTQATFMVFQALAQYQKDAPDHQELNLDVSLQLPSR
C3b (human), sequence (P01024 23-667 limits assumed, chain 1 of 2): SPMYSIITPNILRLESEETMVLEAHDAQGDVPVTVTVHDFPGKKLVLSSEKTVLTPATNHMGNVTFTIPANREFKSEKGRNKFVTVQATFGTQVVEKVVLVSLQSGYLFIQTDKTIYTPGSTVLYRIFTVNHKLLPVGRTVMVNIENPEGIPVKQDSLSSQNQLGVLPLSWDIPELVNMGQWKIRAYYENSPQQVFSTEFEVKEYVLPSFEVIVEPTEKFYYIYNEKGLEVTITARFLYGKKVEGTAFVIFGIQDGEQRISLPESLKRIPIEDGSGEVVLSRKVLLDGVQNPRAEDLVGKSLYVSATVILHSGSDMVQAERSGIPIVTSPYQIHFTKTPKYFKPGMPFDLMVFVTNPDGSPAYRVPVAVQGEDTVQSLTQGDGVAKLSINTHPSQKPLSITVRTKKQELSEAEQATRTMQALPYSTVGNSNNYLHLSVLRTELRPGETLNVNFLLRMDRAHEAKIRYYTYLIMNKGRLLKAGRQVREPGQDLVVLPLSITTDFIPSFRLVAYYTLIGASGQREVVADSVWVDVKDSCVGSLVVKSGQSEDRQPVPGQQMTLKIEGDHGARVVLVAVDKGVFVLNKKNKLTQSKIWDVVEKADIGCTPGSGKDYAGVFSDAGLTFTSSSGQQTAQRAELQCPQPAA
C3b (human), sequence (P01024 749-1663 limits assumed, chain 2 of 2): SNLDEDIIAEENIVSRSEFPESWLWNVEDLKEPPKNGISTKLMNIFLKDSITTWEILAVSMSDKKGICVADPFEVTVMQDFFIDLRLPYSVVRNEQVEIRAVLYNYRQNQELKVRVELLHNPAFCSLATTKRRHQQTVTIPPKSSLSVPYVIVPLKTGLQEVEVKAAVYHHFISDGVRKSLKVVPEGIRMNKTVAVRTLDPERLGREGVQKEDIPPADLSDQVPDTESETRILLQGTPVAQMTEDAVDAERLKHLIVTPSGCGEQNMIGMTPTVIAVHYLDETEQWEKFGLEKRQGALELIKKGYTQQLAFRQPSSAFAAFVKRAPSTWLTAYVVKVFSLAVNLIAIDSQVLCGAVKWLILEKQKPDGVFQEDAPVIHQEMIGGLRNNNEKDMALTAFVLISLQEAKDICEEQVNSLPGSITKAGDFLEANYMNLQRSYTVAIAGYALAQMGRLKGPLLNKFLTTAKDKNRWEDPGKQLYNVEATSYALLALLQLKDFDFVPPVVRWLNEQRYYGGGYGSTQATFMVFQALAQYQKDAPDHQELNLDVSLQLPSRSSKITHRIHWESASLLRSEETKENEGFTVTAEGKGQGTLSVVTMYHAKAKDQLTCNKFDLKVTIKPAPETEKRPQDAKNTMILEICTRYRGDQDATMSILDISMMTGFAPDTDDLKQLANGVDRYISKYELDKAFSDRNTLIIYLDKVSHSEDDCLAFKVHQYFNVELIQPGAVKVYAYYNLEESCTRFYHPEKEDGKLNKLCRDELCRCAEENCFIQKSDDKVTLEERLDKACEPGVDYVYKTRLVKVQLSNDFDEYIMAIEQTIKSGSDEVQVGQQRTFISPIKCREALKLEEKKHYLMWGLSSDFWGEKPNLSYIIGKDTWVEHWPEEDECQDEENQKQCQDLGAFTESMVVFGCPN
human complement component C3 (human), sequence (P01024 23-667, chain 1 of 2): as the sequence (P01024 23-667 limits assumed, chain 1 of 2) above
human complement component C3 (human), sequence (P01024 672-1663, chain 2 of 2): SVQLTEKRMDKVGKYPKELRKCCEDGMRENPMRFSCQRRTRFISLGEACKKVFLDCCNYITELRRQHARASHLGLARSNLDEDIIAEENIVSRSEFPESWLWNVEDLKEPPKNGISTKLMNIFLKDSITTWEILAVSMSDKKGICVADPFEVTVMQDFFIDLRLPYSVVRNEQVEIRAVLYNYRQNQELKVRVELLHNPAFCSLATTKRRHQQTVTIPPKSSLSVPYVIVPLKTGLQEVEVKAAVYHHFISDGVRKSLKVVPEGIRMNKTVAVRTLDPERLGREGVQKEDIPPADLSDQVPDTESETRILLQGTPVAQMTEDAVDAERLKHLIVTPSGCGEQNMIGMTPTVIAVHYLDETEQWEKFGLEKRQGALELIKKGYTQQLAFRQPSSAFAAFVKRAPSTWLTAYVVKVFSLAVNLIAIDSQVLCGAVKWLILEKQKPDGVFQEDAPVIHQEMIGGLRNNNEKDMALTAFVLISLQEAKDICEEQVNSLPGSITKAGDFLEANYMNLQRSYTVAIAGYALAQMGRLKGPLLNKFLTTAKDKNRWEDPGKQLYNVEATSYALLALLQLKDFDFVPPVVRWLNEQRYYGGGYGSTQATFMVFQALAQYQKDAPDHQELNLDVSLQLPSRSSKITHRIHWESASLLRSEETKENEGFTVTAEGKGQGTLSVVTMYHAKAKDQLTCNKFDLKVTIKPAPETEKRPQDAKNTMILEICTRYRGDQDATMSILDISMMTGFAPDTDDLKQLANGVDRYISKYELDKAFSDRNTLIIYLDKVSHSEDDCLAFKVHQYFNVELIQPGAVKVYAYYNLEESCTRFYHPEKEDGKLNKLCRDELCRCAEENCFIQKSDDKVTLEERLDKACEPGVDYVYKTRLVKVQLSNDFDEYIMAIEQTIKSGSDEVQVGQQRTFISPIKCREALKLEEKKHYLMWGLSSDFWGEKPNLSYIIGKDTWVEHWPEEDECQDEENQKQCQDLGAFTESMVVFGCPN

binding relative to negative control mIgG2 (C3a (human)): 0
binding relative to negative control mIgG2 (C3b (human)): 0
binding relative to negative control mIgG2 (C3c): 0
binding relative to negative control mIgG2 (C3d): 0
binding relative to negative control mIgG2 (Factor Bb): 0
binding relative to negative control mIgG2 [1]: 0
binding relative to negative control mIgG2 (iC3b): 0
Substance: negative control mIgG2 antibody
